Where a chain is given by its changes, count along the chain named.
B1: SCT-Fa113 (antibody, V domains shown)
VH: QVQLQQPGAEFVKPGASVKLSCEASGNTFTSYWIQWVKQRPGQGLEWIGEIDPSDSYIDYNQKFKDKATLTVDTSSSTAYMHLSSLTSEDSAVYYCAREGAYSSPFAYWGQGTLVTVSA
VL: DILMTQSPSSMSVSLGDTISIICHASQDIRSNIGWLQQKPGKSFKGLIYHGSNLEDGVPSRFSGSGSGADYSLTISSLESEDFADYYCVQYIQFPRTFGGGTKVEIK
notes: murine IgG
B2: SCT-Fa127 (antibody, V domains shown)
VH: QVQLQQPGAELVMPGASVKLSCKASGYTFTTYWMHWVKQRPGQGLEWIGEIDPSDGYSNYNQNFKGKATLTVDKSSSTAYLQLSSLTSEDSAVYYCARNYGSNYVGYFDYWGQGTTLTVSS
VL: DIQMTQTTSSLSASLGDRVTISCRSSQDISNYLNWYQQKPDGTVKLLIYYTSRLHSGVPSSFSGSGSGTDYSLTISNLEQEDIATYFCQQANALPWTFGGGTKLEIK
notes: murine IgG
B3: SCT-Fa133 (antibody, V domains shown)
VH: B2 VH with P14S, K38R, G56S, Y60N, G66A, L81M, S84G
VL: B2 VL with T7S, S25A, S30T, Y50H, S56A, S61R, E79D, A91G
notes: murine IgG
B4: SCT-Fa129 (antibody, V domains shown)
VH: B2 VH with G56S, S58T, N63K, L81M
VL: B2 VL with M4L, S22N, S25A, H55L, N77S, A91G, N92K
notes: murine IgG
B5: SCT-Fa128 (antibody, V domains shown)
VH: B2 VH with G56S, N63K, L81M
VL: B2 VL with M4L, S22N, S25A, H55L, N77S, A91G, N92K
notes: murine IgG
B6: SCT-Fa122 (antibody, V domains shown)
VH: B2 VH with K23E, Y32F, M34I, G56S, S58T
VL: B2 VL with S25A, T85I
notes: murine IgG
B7: SCT-Fa132 (antibody, V domains shown)
VH: B2 VH with G15R, T31S, S58T, Q62H, N63K, L81M
VL: B2 VL with S25A, P40R, L54F, S61R, A91G, A93T
notes: murine IgG
B8: SCT-Fa131 (antibody, V domains shown)
VH: B2 VH with K19R, A24T, T30S, G56S, S58T, L81M, Q82K
VL: B2 VL with T8A, S25A, S30N, A91G, G99S
notes: murine IgG
B9: SCT-Fa190 (antibody, V domains shown)
VH: B2 VH with Q5R, T30N, G56S, S58T
VL: B2 VL with S25A, H55P, N92K
notes: murine IgG
B10: SCT-Fa125 (antibody, V domains shown)
VH: B2 VH with T31S, G56N, S58T, N63K, K74G, L81M
VL: B2 VL with S25A, D28G, L54F, S61R, A91G, A93S
notes: murine IgG
B11: SCT-Fa124 (antibody, V domains shown)
VH: B2 VH with T30S, G56S, S58T, L81M, Y110H, Q113R
VL: B2 VL with S25A, E79A, A91G
notes: murine IgG
B12: SCT-Fa126 (antibody, V domains shown)
VH: B2 VH with T31S, G56S, N63K, L81M, S84I
VL: B2 VL with S25A, H55L, S61R, A91G, A93T, K103N
notes: murine IgG
B13: SCT-Fa130 (antibody, V domains shown)
VH: B2 VH with K19R, K38R, G56S, S58T, Y110H
VL: B2 VL with S25A
notes: murine IgG
B14: SCT-Fa123 (antibody, V domains shown)
VH: B2 VH with T30N, G56S, S58T, K65N
VL: B2 VL with S25A, H55P, N92K
notes: murine IgG
B15: SCT-Fa111 (antibody, V domains shown)
VH: QVQLKQSGPGLVQPSQSLSITCTVSGFSLISYGVHWVRQSPGKGLEWLGIIWSGGNTDYNAAFISRLSISKDNSKSQVFFKLNSLQADDTAIYYCARTANALDYWGQGTSVTVSS
VL: DVLMTQTPLSLPVSLGDQASISCRSSQTIVHSNGNTYLEWYLQKPGQSPKLLIYKVSNRFSGVPDRFSGSGSGTDFTLKISRVEAEDLGVYYCFQGSHVPWTFGGGTKLEIK
notes: murine IgG
B16: SCT-Fa121 (antibody, V domains shown)
VH: QVQLQQPGAELVKPGASVKVSCKASGYTFISHWMYWVRQRPGQGLEWIGRIHPSDSDTDYSQEFKGKATLTVDKSSSTAHMQLSSLTSEDSAVYYCAIWSYYYGSRLDYWGQGTTLTVSS
VL: B15 VL with T7A, L9P, T28N, K44R, F94C, W101Y
notes: murine IgG
B17: SCT-Fa116 (antibody, V domains shown)
VH: QVQLQQPGAELVKPGASVKLSCKASGYSFISSWMEWVKQRPGQGLEWIGRIHPSDSDTNYNQKFKAKATLTVDKSSSTAYMQLSSLTSEDSAVYYCAIIHRGFYFAMDYWGQGTSVTVSS
VL: B15 VL with T28S
notes: murine IgG
B18: SCT-Fa120 (antibody, V domains shown)
VH: QVQLQQPGAELVKPGASVKVSCKASGYSFISYWMYWVKQRPGQGLEWIGRIHPSDSDTNYNQKYKGKATLTVDRSSSTAYMQLSSLTSEDSAVYYCTISHYSGSSPETYWGQGTTLTVSS
VL: B15 VL with T28S, W101Y
notes: murine IgG
B19: SCT-Fa142 (antibody, V domains shown)
VH: QVQLQQPGAELVRPGTSVRLSCKASGYSFTIYWMHWVKQRPGQGLEWIGVIDPSTSNTDYNQKFKGKATLTVDTSSSTAYMQLRSLSSEDSAVYYCARNDYDGGYFDYWGQGTTLTVSS
VL: B15 VL with L3V, T28R, I29L, E39H, P45T, Y92F, F94S, G96S, S97T
notes: murine IgG
B20: SCT-Fa119 (antibody, V domains shown)
VH: B17 VH with L20V, A66G
VL: B15 VL with T28S
notes: murine IgG
B21: SCT-Fa150 (antibody, V domains shown)
VH: B16 VH with L11V, T28S, S105T
VL: B15 VL with L9P, T28N, K44R, F94C, W101Y
notes: murine IgG
B22: SCT-Fa118 (antibody, V domains shown)
VH: QVQLQQPGAELVKPGASVKLSCKASGYTFISYWMHWVKQRPGRGLEWIGRIDPNSGDTKYNEKFKSKATLTVDKPSSTAYMQLSSLISEDSAVYYCARWGWDAFAYWGQGTLVTVSA
VL: DAVMTQTPLSLPVSLGDQASISCRSSQSLENSDGNTYLNWYFQKTGQSPQLLIYRVSNRFSGVLDRFSGSGSGTDFTLKISRVEAEDLGVYFCLQVTHVPPTFGAGTKLELK
notes: murine IgG
B23: SCT-Fa136 (antibody, V domains shown)
VH: QVQLQQPGAELVRPGTSVKLSCKASGYTFINYWMHWVKQRPGQGLEWIGVIDPSHTSTSYNQKFKGKATLTVDTSSTTTSMQLTSLTSEDSAVYYCARNDYDGGYFDYWGQGTTLTVSS
VL: DVVMTQIPLSLPVSLGDQASISCRSSQSLVHSNGNTYLHWYLQKPGQSPKLLIYTVSNRFSGVPDRFSGSGSGTDFTLKISRLEAEDLGVYFCSQTTHVPWTFGGGTKLEIK
notes: murine IgG
B24: SCT-Fa143 (antibody, V domains shown)
VH: QVQLQQPGAELVRSGTSVKLSCKASGYTFISYWMHWVKQRPGQGLEWIGVIDPSDTNTNYNQKFRGKATLTVDTSSSTAYMQLSSLTSEDSAVYFCARNDYDGGYFDYWGQGTTLTVSS
VL: B23 VL with I7T, V13G, P45S, T55K, L83V, V90L
notes: murine IgG
B25: SCT-Fa138 (antibody, V domains shown)
VH: B19 VH with R19K, S28T, I31R, K38R, T55S, N57S, R84S, S87T
VL: B23 VL with I7S, N35I, K50N, T55K, L83V
notes: murine IgG
B26: SCT-Fa141 (antibody, V domains shown)
VH: B24 VH with S14P, K19N, I30T, I48L, T56S, R65K, F95Y, A97S
VL: B23 VL with I7T, L83V, V90I, T96S
notes: murine IgG
B27: SCT-Fa134 (antibody, V domains shown)
VH: QVQLQQPGAELVRPGSSVKLSCKASGYNFTNYWIDWVKQRPGQGLAWIGDIYPSDNKTHYNQNFKGKATLTVDKSSNTAYMQLSSLTSEDSAVYYCAASMDYWGQGTSVTVSS
VL: DIVMTQSPSSLTVTAGEKVTMSCKSSQSLLNSKNQKNFLTWYQQKPGQPPKLLIYWASTRESGVPDRFTGSASGTDFTLTISSVQAEDLAVYYCQNDYSYPYTFGGGTKLEIK
notes: murine IgG
B28: SCT-Fa135 (antibody, V domains shown)
VH: B27 VH with N31S, A46E, N56S, S85N, A98T
VL: B27 VL with S99D
notes: murine IgG
B29: SCT-Fa105 (antibody, V domains shown)
VH: QVQLKQSGAELVRPGTSVKLSCKASGYTLTDYYINWVKQRPGQGLEWIARIYPGNGNTYYNEKFKGKATLTAEKSSNTVNMQVSSLTSEDSAVYFCARGGSSDRIYYYAMDYWGQGTSVTVSS
VL: DIQMNQSPSSLSASLGDTITITCHASQNINVWLSWYQQKPGDIPKLLIYKASNLHTGVPSRFSGSGSGTGFTLTISSLQPEDIATYYCQQGQSYPLTFGSGTKLEIK
notes: murine IgG
B30: SCT-Fa106 (antibody, V domains shown)
VH: B29 VH with N77S, V79A, N80Y, D103V, I105V
VL: B29 VL with D42N, P59T
notes: murine IgG
B31: SCT-Fa110 (antibody, V domains shown)
VH: B29 VH with K19R, N77S, S84T
VL: B29 VL with D42N
notes: murine IgG
B32: SCT-Fa109 (antibody, V domains shown)
VH: B29 VH with N77S, S84T, V93I, G116V
VL: B29 VL with D42N, I106V
notes: murine IgG
B33: SCT-Fa194 (antibody, V domains shown)
VH: B29 VH with K5R, N77S
VL: B29 VL with D42N, P44L
notes: murine IgG
B34: SCT-Fa108 (antibody, V domains shown)
VH: B29 VH with N77S, S84T, V93I
VL: B29 VL with D42N, I106V
notes: murine IgG

Each binder was assayed against T1, Human TIM-3 Human Fc tagged protein (human, fluorescently labeled with HiLyte Fluor 555 (sites not given)) (assay: capture slide probed with labeled TIM-3-Fc;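 also: IgG from single CD138-enriched plasma cells, isolated from lymphocytes, immobilized on a derivatized glass slide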).
T1 construct: Bought construct; also called TIM-3 protein tagged with human Fc; ACROBiosystems catalog no: TM3-H5258

| binding result | Binder |
| --- | --- |
| binds | B1 |
| binds | B2 |
| binds | B3 |
| binds | B4 |
| binds | B5 |
| binds | B6 |
| binds | B7 |
| binds | B8 |
| binds | B9 |
| binds | B10 |
| binds | B11 |
| binds | B12 |
| binds | B13 |
| binds | B14 |
| binds | B15 |
| binds | B16 |
| binds | B17 |

| binding result | Binder |
| --- | --- |
| binds | B18 |
| binds | B19 |
| binds | B20 |
| binds | B21 |
| binds | B22 |
| binds | B23 |
| binds | B24 |
| binds | B25 |
| binds | B26 |
| binds | B27 |
| binds | B28 |
| binds | B29 |
| binds | B30 |
| binds | B31 |
| binds | B32 |
| binds | B33 |
| binds | B34 |

From patent US20230279105A1 (SINGLE CELL TECHNOLOGY, published 2023)
